The values below are quoted from earlier work in publication PMC8910669.

The data set deals with SARS-CoV-2 spike RBD RBD (Severe acute respiratory syndrome coronavirus 2) (UniProt P0DTC2).

Regarding hBD-2 (from UniProt O15263), the dissociation constant Kd is 300 nM.
